The numbers were not newly measured in article PMC9434060 (Heliyon, 2022), which cites them from elsewhere.

For this series the following is noted: hIntL-1, ligand not given; ref [10].

B1: hIntL-1: Human intelectin-1, disulfide-linked trimeric lectin (protein, UniProt Q8WWA0 19-298, looked up)
Intelectin-1: TDEANTYFKEWTCSSSPSLPRSCKEIKDECPSAFDGLYFLRTENGVIYQTFCDMTSGGGGWTLVASVHENDMRGKCTVGDRWSSQQGSKAVYPEGDGNWANYNTFGSAEAATSDDYKNPGYYDIQAKDLGIWHVPNKSPMQHWRNSSLLRYRTDTGFLQTLGHNLFGIYQKYPVKYGEGKCWTDNGPVIPVVYDFGDAQKTASYYSPYGQREFTAGFVQFRVFNNERAANALCAGMRVTGCNTEHHCIGGGGYFPEASPQQCGDFSGFDWSGYGTHVGYS
For orientation: Kd means the concentration at which binding is half-saturated. In the case of B1, the Kd was 85 ± 14 nM.
